# Results as given in patent publication EP1088233B9, “A BIOLUMINESCENCE RESONANCE ENERGY TRANSFER (BRET) SYSTEM AND ITS USE” (PerkinElmer BioSignal Inc., priority 1998, dated 1999).
# Where two headings read alike, the source gives them in different places.
# Legend:
# [1] = Effect of DTT on BRET ratio in stable cell lines expressing Rluc or Rluc::EYFP (BRETCount); type: cell-based; settings: DTT 10mM in PBS+Ca2+/Mg2++glucose
# Protocol: PBS=PBS+Ca^2+/Mg^2++glucose. DTT 10mM. […] PBS=PBS+Ca^2+/Mg^2++glucose DTT 10mM.
# In PBS (Ca ^2+/Mg^2++glucose) alone, BRET ratios are lower than in presence of DTT. When DTT is added, ratios increase by almost 0.1 BRET unit.
# [2] = Cell viability by trypan blue dye in BRET assay media; type: cell-based; settings: hamster, cho cells
# Protocol: The effect of the type of media on the luminescence of the Rluc was assayed in absence or in the presence of various amount of DTT. Transfected CHO cells were collected and redistributed in 96 well plate using different media conditions (Figures 24-26). Luminescence timecourses at 470nm (TopCount) were performed at 25°C upon coelenterazine addition. The effects of three different media were assayed: PBS Ca^2+/Mg^2+ (Figure 24), PBS Ca^2+/Mg^2+ + glucose (Figure 25) and DMEM without phenol red (Figure 26).
# Similar results were found in presence of 100mM DTT: PBS alone gave higher long term counts. As expected, increasing the concentration of DTT improved Rluc stability in all three media. Unfortunately, high amounts of DTT (50 and 100mM) which gave the best stability, damaged the cells: viability was assayed using trypan blue dye and decreased more than 20% over a period of 2 hours. […] This concentration was chosen for the BRET assays. […] However, DTT is not necessary for the BRET reaction to occur efficiently: as it acts as a boost for the Rluc long term emission.
# In order to avoid cell damage during the assay procedure and timecourse experiments, an analysis was conducted to determine whether the use of aprotinin perturbs ratiometric measurements. Aprotinin is a protease inhibitor which is often used during cell culture to maintain cell integrity. […]
# [3] = target: T1, Rluc (Renilla reniformis, UniProt P27652); assay: Rluc luminescence with coelenterazine derivatives in cells transfected with pRluc-CMV (LumiCount); parameters: Normalized RLU: dose or concentration left out as unconfirmed; settings: for half-life of the reaction (Rluc luminescence): coelenterazine f 1 mM; for Normalized RLU: derivatives, 4 minutes after addition
# T1 sequence (P27652 1-311): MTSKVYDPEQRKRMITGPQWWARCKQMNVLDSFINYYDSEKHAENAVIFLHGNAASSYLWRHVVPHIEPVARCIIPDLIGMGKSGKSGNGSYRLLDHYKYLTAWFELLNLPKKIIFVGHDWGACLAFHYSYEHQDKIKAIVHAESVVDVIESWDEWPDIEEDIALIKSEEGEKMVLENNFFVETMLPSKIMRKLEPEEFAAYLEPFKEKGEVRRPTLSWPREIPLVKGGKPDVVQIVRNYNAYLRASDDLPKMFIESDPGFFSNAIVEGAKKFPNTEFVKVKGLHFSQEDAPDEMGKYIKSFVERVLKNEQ
# Protocol: i) Coelenterazine derivatives. […] Cells (HeLa) were transiently transfected inT-75 flask with pRluc-CMV orcontrol vector using LipofectAMINE. At 48 hours post-transfection, cells were harvested and seeded in 96-well white ViewPlate (in duplicate). Coelenterazine derivatives (1 mM) were then added in each well. Luminescence from transfected cells was measured using the LumiCount 4 minutes after addition of coelenterazine derivatives. LumiCount was set at 1100V PMT and 1 sec read length.
# Cells (HeLa and CHO) were transiently transfected inT-75 flasks with pRluc-CMV using LipofectAMINE. At 48 hours post-transfection, cells were harvested and seeded in 96-well white ViewPlate at a density of 50 000 cells per wells (in quadruplicate). Coelenterazine f (1 mM) was then added in each well. Luminescence from transfected cells was measured using the LumiCount at different times after addition of coelenterazine. LumiCount was set at 1100V PMT and 0.1 sec read length.
# [4] = test system: HeLa cells transfected with the apoptosis sensor; assay: Apoptosis sensor (Rluc-caspase-EYFP) BRET assay; type: cell-based; settings: staurosporine 1mM, 5 hours of apoptosis induction, 10 minutes after coelenterazine h
# Source text: A BRET apoptosis sensor was engineered by introducing a caspase-3 recognition site in the linker regionof the Rluc-EYFP fusionconstruct. Upon inductionof apoptosis, caspase-3 should recognize and cleave the linker region which should separate Rluc of EYFP and thereby decrease the BRET ratio over time.
# pCEP4/Rluc-EYFP and pCEP4/Rluc-caspase-EYFP DNAs were transfected into HeLa cell using LipofectAMINE (BRL/Gibco-Life technologies) in 100mm dishes as described in the manufacturer's protocol. 24 hours post-transfection, transfected cells were harvested and distributed into 96-well microplates (white Optiplate from Packard) at a density of 30,000 cells per well. The following day, cells are induced to undergo apoptosis using staurosporine 1mM dissolved in ISCOVE media (BRL/Gibco-Life technologies) without serum and phenol red at 37°C (total volume here is […]) for 5 hours. […] of BRET buffer (PBS Ca^2+/Mg^2+ + glucose without aprotinin) and […] of coelenterazine h […] is added to start the bioluminescent reaction. Light emissions are detected using the BRETCount (read length sec for each filter, temperature 25°C). Data was collected 10 minutes after addition of coelenterazine h. The assay was done in quadruplicate.
# Figure 31 gives representative BRET ratio changes in HeLa cells after 5 hours of apoptosis induction by staurosporine. […]
# [5] = target: EGF receptors expressed endogenously by GH4-C1 cells; assay: cell-based or functional assay
# [6] = target: EYFP•KaiB fusion protein (Aequorea victoria; Synechococcus (cyanobacterium)) (UniProt Q79PF5); assay: BRET luminescence spectra, co-expression in E. coli
# [7] = target: EYFP•KaiB fusion protein (Aequorea victoria; Synechococcus (cyanobacterium)) (UniProt Q79PF5); assay: BRET imaging of E. coli cultures through 480 and 530 nm filters, cooled-CCD camera
# [8] = target: EYFP•KaiA fusion protein (Aequorea victoria; Synechococcus (cyanobacterium)) (UniProt Q79PF6); assay: as above
# [9] = target: enhanced yellow fluorescent protein (EYFP) (Aequorea victoria); assay: BRET in co-transfected cells, LumiCount, white microplate, 200 ul, 5 uM coelenterazine, 50,000 cells per well
# [10] = target: enhanced yellow fluorescent protein (EYFP) (Aequorea victoria); assay: BRET in co-transfected cells, LumiCount, white microplate, 100 ul, 5 uM coelenterazine, 50,000 cells per well
# [11] = target: enhanced yellow fluorescent protein (EYFP) (Aequorea victoria); assay: BRET in co-transfected cells, LumiCount, black microplate, 200 ul, 5 uM coelenterazine, 50,000 cells per well
# [12] = target: T2, calcitonin receptor (Cricetulus griseus, UniProt G3GXI2); settings: literature values; read-out: EC50 found in literature for a functional assay; cited from earlier work
# T2 sequence (G3GXI2 40-539): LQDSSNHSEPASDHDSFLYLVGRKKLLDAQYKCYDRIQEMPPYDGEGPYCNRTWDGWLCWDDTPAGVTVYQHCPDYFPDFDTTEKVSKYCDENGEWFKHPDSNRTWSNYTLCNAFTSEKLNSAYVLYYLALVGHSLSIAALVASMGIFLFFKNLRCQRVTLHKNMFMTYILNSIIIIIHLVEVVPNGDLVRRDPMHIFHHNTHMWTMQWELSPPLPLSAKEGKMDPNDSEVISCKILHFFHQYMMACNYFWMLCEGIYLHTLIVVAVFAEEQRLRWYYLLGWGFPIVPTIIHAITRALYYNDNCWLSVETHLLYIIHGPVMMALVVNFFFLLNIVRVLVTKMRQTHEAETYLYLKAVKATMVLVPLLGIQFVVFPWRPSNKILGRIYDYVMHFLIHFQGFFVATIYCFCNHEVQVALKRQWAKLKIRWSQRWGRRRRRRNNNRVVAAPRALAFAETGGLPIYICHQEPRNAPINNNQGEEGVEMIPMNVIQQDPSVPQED
# [13] = target: T2, calcitonin receptor; assay: cAMP sensor (CBP:CREB) BRET assay in CHO-K1 cells, endogenous calcitonin receptor; type: cell-based
# Protocol: The pCDNA3./Rluc-CBP-NLS and pCDNA3.1 /EYFP-CREB-NLS DNA constructs were transiently transfected into CHO-K1, CHO-CCRS or CHW-β2 cell lines using LipofectAMINE™ (BRL/Gibco-Life technology, Gaethersburg, MD) using equal amount (4 µg) of DNA for each construct in 100mm dishes.
# BRET assay using the transfected cells in suspension. At 48 hours post-transfection, the transfected cells were starved for 2 hours in a mixture of PBS + Ca2 + 1 mM/Mg2 + 0.5mM + glucose 1 g/l +aprotinin 2 µg/ml at 37°C before being harvested, washed with a mixture of PBS Ca2+/Mg2+ + glucose + aprotinin 2 µg/ml and counted. […]
# BRET assay using transfected cells attached onto the bottom of the microplate. […] At 48 hours post-transfection, the transfected cells were starved as previously mentioned, washed and then analyzed without being harvested.
# The assay conditions for both methods (cell in suspension or attached), cells were in PBS Ca2+ Mg2+ + glucose + aprotinin 2 µg/ml in volume of […]. […] Each well was read using both filters for 1 second each.
# The CHO-K1 cells were transfected with both constructs. At 48 hours post-transfection, the cells were starved for 2 hours, washed, harvested and counted. […] The microplate was loaded into the BRETCount and light outputs at 470nm and 550nm were determined at several points to determine a timecourse (fig. 10). […]
# [14] = target: calcitonin receptor expressed endogenously by CHO-K1 cells; assay: cell-based or functional assay
# [15] = target: Rluc-caspase-EYFP (apoptosis sensor) (Renilla reniformis; Aequorea victoria) (UniProt P27652); assay: cell-based or functional assay
# Sequence of EYFP•KaiB fusion protein (Aequorea victoria; Synechococcus (cyanobacterium)) (Q79PF5 whole entry, the tested form may be a part): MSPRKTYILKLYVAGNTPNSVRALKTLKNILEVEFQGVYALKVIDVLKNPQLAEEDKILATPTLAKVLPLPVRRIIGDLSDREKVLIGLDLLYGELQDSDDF
# Sequence of EYFP•KaiA fusion protein (Aequorea victoria; Synechococcus (cyanobacterium)) (Q79PF6 whole entry, the tested form may be a part): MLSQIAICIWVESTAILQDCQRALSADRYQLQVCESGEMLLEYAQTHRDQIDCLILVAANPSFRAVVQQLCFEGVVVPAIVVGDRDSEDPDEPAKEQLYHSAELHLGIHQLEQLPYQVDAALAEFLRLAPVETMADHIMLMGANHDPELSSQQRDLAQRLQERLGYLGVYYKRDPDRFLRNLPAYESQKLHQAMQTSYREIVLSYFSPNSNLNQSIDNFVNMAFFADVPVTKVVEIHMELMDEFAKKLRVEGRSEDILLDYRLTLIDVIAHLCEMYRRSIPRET
compound,measurement,setting,value
OC(CS)C(O)CS (stereo not shown) [DTT],increase of BRET ratio,[1],~0.1 BRET unit
same,"cytotoxicity at 2 h, 10000 µM","[2]; DTT 10mM, over 2 hours, read-out: viability loss",< 15%
same,cytotoxicity at 2 h,"[2]; DTT 50 and 100mM, over a period of 2 hours, read-out: viability decrease",> 20%
"Oc1ccc(-c2cn3c(O)c(Cc4ccc(F)cc4)nc3c(Cc3ccccc3)n2)cc1 [f, coelenterazine f]",half-life of the reaction (Rluc luminescence),[3]; CHO cells,11 min
same,half-life of the reaction (Rluc luminescence),[3]; HeLa cells,13 min
same,Normalized RLU,[3]; HeLa cells,180126 RLU
"Oc1ccc(-c2cn3c(O)c(Cc4ccccc4)nc3c(Cc3ccccc3)n2)cc1 [h, coelenterazine h]",Normalized RLU,[3]; HeLa cells,173547 RLU
Oc1ccc(-c2cn3c(O)c(Cc4ccccc4)nc3c(CC3CCCC3)n2)cc1 [hcp],Normalized RLU,[3]; HeLa cells,48144 RLU
"Oc1ccc(Cc2nc3c(Cc4ccccc4)nc(-c4ccc(O)cc4)cn3c2O)cc1 [native, coelenterazine]",Normalized RLU,[3]; HeLa cells,2030 RLU
CN[C@@H]1C[C@H]2O[C@@](C)([C@@H]1OC)n1c3ccccc3c3c4c(c5c6ccccc6n2c5c31)C(=O)NC4 [staurosporine],BRET ratio change (decrease),[4],0.1 unit
EGF (ligand),"EC50 of the EGF dose response, BRET ratio of the TKR sensor (Rluc-PTB + EYFP-SH2) in GH4-C1 cells at 45 minutes post induction",[5],0.92 nM
RLUC•KaiB fusion protein (from UniProt Q79PF5 1-102),share of the RLUC luminescence for which energy transfer occurs,[6],50%
same,530/480nm ratio of luminescence,[7],0.9
same,530/480nm ratio of luminescence,[8],0.4
Renilla luciferase (RLUC) (from UniProt P27652 1-311) (enzyme),Ratio 530/480,[9],0.87
same,Ratio 530/480,[10],0.9
same,Ratio 530/480,[11],0.76
calcitonin,EC50,[12],0.03 to 0.06 nM
same,EC50,"[13]; CHO-K1 transfected with cAMP sensor, attached cells, data point at 45 minutes after addition of coelenterazine",0.027 nM
same,BRET ratio over time,"[13]; calcitonin 2 nM and 10nM, CHO-K1 cells in suspension, compared to buffer alone",Ratios increased over time
calcitonin (peptide),"EC50 of the calcitonin dose response, BRET ratio of the cAMP sensor in attached CHO-K1 cells at 45 minutes",[14],0.027 nM
caspase-3 (endogenous in HeLa cells) (from UniProt P42574 29-277) (enzyme),BRET ratio change in HeLa cells after 5 hours of apoptosis induction by staurosporine,[15],0.1 unit
